Two molecules from patent publication US20050112108, “Transcriptional regulator of genes involved in the control of cell growth or cell proliferation. Use of said regulator as a therapeutic or diagnostic agent” (published 2005) can be followed below.

The target of data set [1] is T1, GAAP-1 (IPCS-BF1, 2.5 kb PRDII-BF1 splice product) (Homo sapiens, UniProt P15822 SEQ:1-693).
T1 chain: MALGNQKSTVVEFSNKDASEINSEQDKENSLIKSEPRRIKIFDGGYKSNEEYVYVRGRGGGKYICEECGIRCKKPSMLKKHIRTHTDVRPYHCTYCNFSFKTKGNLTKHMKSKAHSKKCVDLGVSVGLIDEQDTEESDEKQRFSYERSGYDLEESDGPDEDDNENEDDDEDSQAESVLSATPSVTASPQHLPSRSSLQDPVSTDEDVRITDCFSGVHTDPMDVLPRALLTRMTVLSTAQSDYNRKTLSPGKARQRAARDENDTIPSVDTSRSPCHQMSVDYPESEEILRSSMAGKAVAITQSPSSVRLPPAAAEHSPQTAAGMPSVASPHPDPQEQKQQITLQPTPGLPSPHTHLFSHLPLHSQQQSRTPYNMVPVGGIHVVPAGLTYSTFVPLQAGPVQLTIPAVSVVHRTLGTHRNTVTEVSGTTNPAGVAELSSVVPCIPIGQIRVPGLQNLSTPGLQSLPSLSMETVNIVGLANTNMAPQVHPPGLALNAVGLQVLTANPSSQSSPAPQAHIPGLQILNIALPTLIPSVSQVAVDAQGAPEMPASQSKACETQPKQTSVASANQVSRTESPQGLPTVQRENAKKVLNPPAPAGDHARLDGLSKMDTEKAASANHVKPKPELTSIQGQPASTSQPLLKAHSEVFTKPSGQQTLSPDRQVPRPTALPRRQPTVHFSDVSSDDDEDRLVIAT
The data set is described as follows: EMSA; two complexes (possible homodimer); considerably stronger than IPCS-p53. To be noted: tags: none (TNT reticulocyte lysate, pcDNA3.1); label: 32P. The protocol:
The protein-DNA binding reactions were carried out using 5 μg of nuclear extract and 0.1 fmol of probe in 20 μl of binding buffer (20 mM Tris-HCl, 25 mM KCl, 1 mM DTT, 1 mM EDTA, 0.1% Nonidet P40, 4% glycerol, 1 mg/ml bovine serum alcbumin, μg/ml poly(dI-dC)) for 20 min at 4° C. In vitro translation products were generated by 50 μl of TNT coupled reticulocyte Lysate System (Promega) and 1 μg of the appropriate plasmid. 5 μl of the in vitro product was used instead of the nuclear extract when required. The reaction mixture was then electrophoresed on a 6% non denaturing acrylamide gel. Competition experiments were carried out using a 50-fold molar excess of the unlabelled probe. The following oligonucleotides (and their complementary strands) were used in these studies:
PRDII-BF1 was previously described as a protein binding to an NF-κB site whose ability to recognise the DNA is determined by two pairs of zinc fingers, one of them present in GAAP-1 (Fan 90, Gaynor, Baldwin). […] To confirm the binding specificity of the cloned GAAP-1 for the IPCS target sequence, in vitro translated GAAP-1 was incubated with labelled IPCS or NF-κB oligonucleotide and analysed by Electro Mobility Shift Assay (EMSA). […] Furthermore, the affinity of in vitro translated GAAP-1 was considerably stronger for the NF-κB probe than for the IPCS-P53 probe. […]
On the technique in general: In EMSA bound probe runs differently from free probe, usually more slowly.

The target of data set [2] is T1, GAAP-1 (IPCS-BF1, 2.5 kb PRDII-BF1 …). The data set is described as follows: EMSA; one complex; competed by 50-fold excess; weaker than NF-kB probe in vitro. The note with it: tags: none (TNT reticulocyte lysate, pcDNA3.1); label: 32P. How it is done:
FIG. 5a)—EMSA using the IPCS-p53 probe and in vitro translated GAAP-1 (lane1), GAAP-1 mtZ1 (lane 3), GAAP-1 mt Z2 (lane 5), or reticulocyte lysat with the empty expression vector (lane 7). Even lanes: 50 fold molar excess of IPCS-p53 oligonucleotide was added to the reaction of the previous lane. The arrow indicates the specific complex.
Synthetic double stranded oligonucleotide probes were labelled with α-³²P dCTP (Amersham Corp.) by “filling-in” with Sequenase, and then purified on Sephadex G-50. The protein-DNA binding reactions were carried out using 5 μg of nuclear extract and 0.1 fmol of probe in 20 μl of binding buffer (20 mM Tris-HCl, 25 mM KCl, 1 mM DTT, 1 mM EDTA, 0.1% Nonidet P40, 4% glycerol, 1 mg/ml bovine serum alcbumin, μg/ml poly(dI-dC)) for 20 min at 4° C. In vitro translation products were generated by 50 μl of TNT coupled reticulocyte Lysate System (Promega) and 1 μg of the appropriate plasmid. […]
PRDII-BF1 was previously described as a protein binding to an NF-κB site whose ability to recognise the DNA is determined by two pairs of zinc fingers, one of them present in GAAP-1 (Fan 90, Gaynor, Baldwin). […] To confirm the binding specificity of the cloned GAAP-1 for the IPCS target sequence, in vitro translated GAAP-1 was incubated with labelled IPCS or NF-κB oligonucleotide and analysed by Electro Mobility Shift Assay (EMSA). […]

B1: NF-kB-MHC (dsDNA)
DNA 1: GATCCTCTGGGGATTCCCCATGGA
DNA 2: TCCATGGGGAATCCCCAGAGGATC
Consider B1, for which the binding result in data set [1] was “binds”.

B2: IPCS-p53 EMSA probe (dsDNA)
DNA 1: AATGCAGGATTCCTCCAAAATGATTTCCAC
DNA 2: GTGGAAATCATTTTGGAGGAATCCTGCATT
As to B2, in data set [2], the binding result is on record as “binds”.
